Consider three molecules from US20220340675A1 (CELGENE, published 2022).

The target of assay [1] is T1, CD20 on cells (Raji cells, human B cells) (human, UniProt P11836 1-297).
T1 construct: whole, on cells; The cells that carry it (Raji, B cells) also carry CD47
T1 sequence (looked up): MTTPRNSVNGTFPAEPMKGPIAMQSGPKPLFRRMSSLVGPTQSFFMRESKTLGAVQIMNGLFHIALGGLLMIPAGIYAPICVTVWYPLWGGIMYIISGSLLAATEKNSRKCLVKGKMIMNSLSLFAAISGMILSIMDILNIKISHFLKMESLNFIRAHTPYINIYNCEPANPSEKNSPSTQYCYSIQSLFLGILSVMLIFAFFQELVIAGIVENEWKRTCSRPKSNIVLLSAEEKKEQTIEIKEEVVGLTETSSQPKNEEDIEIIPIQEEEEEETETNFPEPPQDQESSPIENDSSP
Put plainly: binding to Raji cells (CD20+/CD47+), FIG. 17.

Assay [2] deals with T2, human CD47 expressed on the cell surface (human, UniProt Q08722 19-323). Put plainly: cell-based or functional assay.
The target in assay [3] is T2, human CD47 expressed on the cell surface. Put plainly: blocking of human SIRPα binding to OCI-Ly3 cells (FIG. 21).

B1: rituximab (antibody, human IgG1, kappa, V domains shown)
VH: QVQLQQPGAELVKPGASVKMSCKASGYTFTSYNMHWVKQTPGRGLEWIGAIYPGNGDTSYNQKFKGKATLTADKSSSTAYMQLSSLTSEDSAVYYCARSTYYGGDWYFNVWGAGTTVTVSA
VL: QIVLSQSPAILSASPGEKVTMTCRASSSVSYIHWFQQKPGSSPKPWIYATSNLASGVPVRFSGSGSGTSYSLTISRVEAEDAATYYCQQWTSNPPTFGGGTKLEIKR
notes: Anti-CD20 antibody, bivalent to CD20; also called rituxan
For the molecule B1, the EC50 (in general, the concentration at which the effect is half-maximal) in assay [1] is around 1.1 nM.

B2: TPP-1360 (bispecific antibody, human IgG1, kappa)
light 1: NIQMTQSPSSLSASVGDRVTITCRASQDIHRYLSWFQQKPGKVPKHLIYRESRFVDGVPSRFSGSGSGTEFTLTISSLQPEDFATYYCLQYDEFPYTFGGGTKVEIKRTVAAPSVFIFPPSDEELKSGTASVVCWLNNFYPREAKVQWKVDNALQSGNSEESVTEQDSKDSTYSLSSTLELSKADYEKHKVYACEVTHQGLSSPVTKSFNRGEC
heavy 1: QMQLVQSGAEVKKPGSSVKVSCKASGFNIKDYYLHWVRQAPGKGLEWMGWIDPDQGDTYYAQKFQGRVTITRDRSTSTAYMELRSLRAEDTAVYYCNAAYGESSYPMDYWGQGTLVTVSSASTKGPSVFPLAPSSKSTSGGTAALGCLVKDYFPEPVTVSWNSGALTSGVHTFPAVLKSSGLYSLSSVVTVPSSSLGTQTYICNVNHKPSNTKVDKKVEPKSCDKTHTCPPCPAPELLGGPSVFLFPPKPKDTLMISRTPEVTCVVVDVSHEDPEVKFNWYVDGVEVHNAKTKPREEQYNSTYRVVSVLTVLHQDWLNGKEYKCKVSNKALPAPIEKTISKAKGQPREPQVYVLPPSREEMTKNQVSLLCLVKGFYPSDIAVEWESNGQPENNYLTWPPVLDSDGSFFLYSKLTVDKSRWQQGNVFSCSVMHEALHNHYTQKSLSLSPGK
light 2: QIVLSQSPAILSASPGEKVTMTCRASSSVSYIHWFQQKPGSSPKPWIYATSNLASGVPVRFSGSGSGTSYSLTISRVEAEDAATYYCQQWTSNPPTFGGGTKLEIKRTVAAPSVAIFPPSDERLKSGTASVVCVLNNFYPREAKVQWKVDNALQSGNSQESVTEQDSKDSTYSLSSRLTLSKADYEKHKVYACEVTHQGLSSPVTKSFNRGEC
heavy 2: QVQLQQPGAELVKPGASVKMSCKASGYTFTSYNMHWVKQTPGRGLEWIGAIYPGNGDTSYNQKFKGKATLTADKSSSTAYMQLSSLTSEDSAVYYCARSTYYGGDWYFNVWGAGTTVTVSAASTKGPSVFPLAPSSKSTSGGTAWLGCEVTDYFPEPVTVSWNSGALTSGVHTFPAVLESSGLYSLSSVVTVPSSSLGTQTYICNVNHKPSNTKVDKKVEPKSCDKTHTCPPCPAPELLGGPSVFLFPPKPKDTLMISRTPEVTCVVVDVSHEDPEVKFNWYVDGVEVHNAKTKPREEQYNSTYRVVSVLTVLHQDWLNGKEYKCKVSNKALPAPIEKTISKAKGQPREPQVYVYPPSREEMTKNQVSLTCLVKGFYPSDIAVEWESNGQPENNYKTTPPVLDSDGSFALVSKLTVDKSRWQQGNVFSCSVMHEALHNHYTQKSLSLSPGK
As for B2, in assay [2], the “EC50, activation of macrophage phagocytosis of OCI-Ly3 cells” value worked out at 1.4 nM and the “EC50, activation of macrophage phagocytosis of Raji cells” value amounted to 1.8 nM.

B3: TPP-23 (408_437 Fab with IgG1) (antibody, V domains shown)
VH: QMQLVQSGAEVKKPGSSVKVSCKASGFNIKDYYLHWVRQAPGKGLEWMGWIDPDQGDTEYAQKFQGRVTITRDRSTSTAYMELRSLRAEDTAVYYCNAAYGSSSYPMDYWGQGTLVTVSS
VL: NIQMTQSPSSLSASVGDRVTITCRASQDIHRYLSWFQQKPGKVPKHLIYRANRLVSGVPSRFSGSGSGTEFTLTISSLQPEDFATYYCLQYDEFPYTFGGGTKVEIK
notes: also called parental CD47 mAb
Regarding B3, the EC50 in assay [3] turned out to be 0.11 nM.
